Measurements as given in patent US20220112288A1 (published 2022).

What was measured:
[1] = molecular target: T1, Rhesus macaque CD4-HIS (Acro Biosystems, Cat. CD4-C52H7) (rhesus macaque, UniProt P16003 26-390); experiment: BLI Octet, mAb on anti-mouse Fc sensor, rhesus CD4-HIS 25-100 nM
T1 construct: Bought reagent; also called Rhesus CD4; rhesus CD4-HIS; not shown: His tag

[2] = molecular target: T2, human CD8 on human pan T cells (CD4-negative population) (human, UniProt P01732 22-235; P10966 22-210); experiment: flow cytometry, 20 nM antibody on human pan T cells, A647 anti-human IgG Fc; geomean ratio in CD4-negative population
T2 construct: whole, on cells; Target is CD8 as it stands on primary human pan T cells
T2 sequence (P01732 22-235, chain 1 of 2): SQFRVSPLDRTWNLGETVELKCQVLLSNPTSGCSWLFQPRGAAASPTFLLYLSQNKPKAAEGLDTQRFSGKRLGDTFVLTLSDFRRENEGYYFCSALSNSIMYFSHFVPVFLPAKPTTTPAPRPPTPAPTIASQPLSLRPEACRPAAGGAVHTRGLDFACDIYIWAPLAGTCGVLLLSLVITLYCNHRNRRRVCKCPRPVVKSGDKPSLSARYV
T2 sequence (P10966 22-210, chain 2 of 2): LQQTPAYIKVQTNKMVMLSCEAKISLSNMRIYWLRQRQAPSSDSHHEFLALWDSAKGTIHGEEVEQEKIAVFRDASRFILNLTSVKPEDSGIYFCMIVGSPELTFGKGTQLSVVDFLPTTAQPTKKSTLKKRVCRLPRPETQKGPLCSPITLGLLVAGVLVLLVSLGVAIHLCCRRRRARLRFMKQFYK

T1 sequence (P16003 26-390 limits assumed): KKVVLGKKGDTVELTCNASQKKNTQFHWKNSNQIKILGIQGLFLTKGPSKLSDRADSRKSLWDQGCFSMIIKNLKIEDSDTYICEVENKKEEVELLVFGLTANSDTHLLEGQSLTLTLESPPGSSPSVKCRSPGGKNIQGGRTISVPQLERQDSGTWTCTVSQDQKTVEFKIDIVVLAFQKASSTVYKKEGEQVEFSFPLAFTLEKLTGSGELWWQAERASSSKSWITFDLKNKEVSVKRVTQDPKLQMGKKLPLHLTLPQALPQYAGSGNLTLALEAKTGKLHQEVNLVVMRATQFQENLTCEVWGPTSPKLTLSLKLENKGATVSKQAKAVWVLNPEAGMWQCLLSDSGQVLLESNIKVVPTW

Row | Binder | binding result [1] | Cell Binding to Human PanT Signal/Background (of CD4 negative population) [2] [signal/background]
1 | 75110_01K10A (antibody, V domains shown, Tested as antibody purified from AlivaMab Mouse hybridoma supernatant (captured by anti-mouse IgG Fc)) VH: EVQLVESGGALVQPGGSLRLSCAASGFTFRNYDMHWVRQATGKGLEWVSTIGTAGDTYYPGSVKGRFTISRENAKNSLYLQMNSLRAGDTAVYYCARGGDYYYGMDVWGQGTTVTVSS VL: EIVLTQSPDTLSLSPGERATLSCRASQSLSSVYLAWYQQKPGQAPRLLIYGASSRATGIPDRFSGTGSGTDFTLTISRLEPEDFAVYYCQQYGSSPFTFGPGTKVDIK | no binding (tested: 100 nM) | –
2 | 75110_02I18A (antibody, V domains shown, Tested as antibody purified from AlivaMab Mouse hybridoma supernatant (captured by anti-mouse IgG Fc)) VH: EVQVVESGGGLVQPGGSLRLSCAASGFTFSSYDMHWVRQATGKGLEWVSTIGTAGDTYYPGSVKGRFTISRENAKNSLYLQMNSLRAGDTAVYYCARGGYYYYGMDVWGQGTTVTVSS VL: EIVLTQSPGTLSLSPGERATLSCRASQSVSSSYLAWYQQKPGQSPRLLIHGASSRATGIPDRVSGSGSGTDFTLTISRLEPEDFAVYYCQQYGSSPFTFGPGTKVDIK | no binding (tested: 100 nM) | –
3 | 75110_04P06A (antibody, V domains shown, Tested as antibody purified from AlivaMab Mouse hybridoma supernatant (captured by anti-mouse IgG Fc)) VH: EVQLVESGGGLVQPGGSLRLSCAASGFTFSNYDMHWVRQATGKGLEWVSTIGTAGDTYYPGSVKGRFTISRENAKNSLYLQMNSLRAGDTAVYYCARGGDYYYGMDVWGQGTTVTVSS VL: EIVLTQSPDTLSLSPGERATLSCRASQSLSSVYLAWYQQKPGQAPRLLIYGASSRATGIPDRFSGSGSGTDFTLTINRLEPEDFVVYYCQQYGSSPFTFGPGTKVDIK | no binding (tested: 100 nM) | –
4 | 75110_05F19A (antibody, V domains shown, Tested as antibody purified from AlivaMab Mouse hybridoma supernatant (captured by anti-mouse IgG Fc)) VH: EVQLVESGGGLVQPGGSLRLSCAASGFTFSNYDVHWVRQPTGKGLEWVSTIGTAGDTYYPGSVKGRFTISRENAKNSLYLQMNSLRAGDTAVYYCARGGYDYYGLDVWGQGTTVTVSS VL: not shown | no binding (tested: 100 nM) | –
5 | CD8B186 (antibody, human IgG1, kappa, V domains shown, Full-length human IgG1, kappa) VH: QVQLQQSGAELAKPGASVKMSCKASGYIFTSYWMHWVKQRPGQGLEWIGNINPSSGYAVYNQKFKDKATLTADQSSSTAYIQLNSLTSEDSAVYYCARRVFYGDSWFAYWGQGTSVTVSS VL: DVQMIQSPASLSASVGETVTITCRASGNIHNYLAWYQQKQGKSPQLLVYNAKTLADGVPSRFSGSGSGTQYSLKINSLQPEDFGSYYCQHFWSTTWTFGGGTKLEIKR | – | 36
6 | CD8B192 (antibody, human IgG1, kappa, V domains shown, Full-length human IgG1, kappa) VH: QVQLQQSGPVLVKPGASVKMSCKASGYTFTDYYMNWVMQSHGKSLEWIGVINPYNGGTTYNQRFTGKATLTVDKSSSTAYMELNSLTSEDSAVYYCARNYGAMDSWGQGTSVTVSS VL: DIQMTQSPASLSASVGETVTITCRASGNIHNYLAWYQQKQGKSPQLLVSNAKTLADGVPSRFGGSGSGTQYSLKINSLQPEDFGSYYCQHFWITPPTFGAGTRLEIKR | – | 22
7 | CD8B245 (antibody, human IgG1, kappa, V domains shown, Full-length human IgG1, kappa) VH: EFQLQQSGGGLVQPGGSLSLSCAAPGFTFTDYYMSWVRQSPGKALEWLALSRNKGNGYTTEYSASVKGRFTISRDNSQSILYLQMNVLRAEDSATYYCARTVTGTLFYYALDYWGQGTTVTVSS VL: DIQMTQSPASLSASVGETVTITCRASENIYSYLAWYQQKQGKSPQFLVYNAKTLAAGVPSRFSGSGSGTQFSLKINRLQPEDFGTYYCQHHYGTPLTFGDGTRLEIKR | – | 44
8 | CD8B248 (antibody, human IgG1, kappa, V domains shown, Full-length human IgG1, kappa) VH: EVQLQQSGAELARPGASVKMSCKASGYTFTTYTMHWVKQRPGQGLEWIGYINPSSGYTKYNQKFTDKATLTADKSSSTAYMQLSSLTSEDSAVYYCARLWAYWGQGTLVTVSA VL: DVVMTQTPLSLPVSLGDQASISCRSSQSLVHSSGNTYLHWYLQKPGQSPKLLIYKGSNRFSGVSDRFSGSGSGTDFTLKISRVEAEDLGVYFCSQSTHVPFTFGSGTKLEMKR | – | 20
9 | CD8B250 (antibody, human IgG1, kappa, V domains shown, Full-length human IgG1, kappa) VH: QVQLKESGPGLVAPSQSLSITCTVSGFSLSNYVVHWVRQSPGKGLEWLGVIWTDGSTDYNAAFISRLSISKDNSKSQVFFKMNSLQADDTAIYYCARNNGYFPAFFAYWGQGTLVTVSA VL: DIVMTQSQKFMSTSVGDRVSVTCKASQNVDTDITWYQQKPGQSPKALIYSASYRYSGVPDRFTGSGSGTDFTLTITNVQSEDLAEYFCQQYNSYPLTFGSGTKLEMKR | – | 61
10 | CD8B254 (antibody, human IgG1, kappa, V domains shown, Full-length human IgG1, kappa) VH: EVQLQQSGAELVKPGASVKMSCKTSGYTFSSYWITWVKQRPGQGLEWVGDIYPGSGSTNYNEKFKSKAALTVDTSSSTAFMQLNSLTSEDSAVYYCARESITTRITPFDHWGQGTTLTVSS VL: DVVMTQTPLSLPVSLGDQASISCRSSQSLVHSSGNTYLHWYLQKPGQSPKLLIYKGSNRFSGVSDRFSGSGSGTDFTLKISRVEAEDLGVYFCSQSTHVPFTFGSGTKLEIKR | – | 23
11 | CD8B311 (antibody, human IgG1, kappa, V domains shown, Full-length human IgG1, kappa) VH: QVQLKESGPELVKPGASVKLSCKASGYTFTSYWMHWVKQRPGQGLEWIGMIHPNSGSTNYNEKFKSKATLTVDKSSSTAYMQLSSLTSEDSAVYYCARCGYDGAWFAYWGQGTSVTVSS VL: DIQMTQTTSSLSASLGDRVTISCSASQGISNCLNWYQQKPDGTVKLLIHYTSSLHSGVPSRFSGGGSGTHYSLTISNLEPEDIATYYCQQYSKVPYTFGSGTKLEIKR | – | 1
12 | CD8B340 (antibody, human IgG1, kappa, V domains shown, Full-length human IgG1, kappa) VH: QVQLQQPGAELVKPGASVRLSCKASGYTFTNYWMQWVQQRPGQGLEWIGEIDPSDTFTNYNQNFKDKATLTVDTSSSTAYLQLSSLTSEDSAVYYCARGDWDRDWYFDVWGTGTLVTVSA VL: not shown | – | 8
13 | CD8B362 (antibody, human IgG1, kappa, V domains shown, Full-length human IgG1, kappa) VH: EVKLVESGAELVKPGASVKLSCTASGFNIKDTYMHWVKQRPEQGLEWIGRIDPANGHTKFDPKFQGKATITADTSSNTAYLQLSSLTSEDTAVYYCAIRFAYWGQGTLVTVSA VL: DIQMTQSPSSLSASLGDRVSLTCRASHEISGYLSWLQQKPDGTFKRLIYAASTLDSGVPKRFSGSRSGSDYSLSISSLESEDFADYYCLQYSSYPYTFGSGTKLEMKR | – | 4
14 | 75110_01C18A (antibody, V domains shown, Tested as antibody purified from AlivaMab Mouse hybridoma supernatant (captured by anti-mouse IgG Fc)) VH: EVQLVESGGGLIQPGGSLRLSCAASGFTVSSNYMNWVRQAPGKGLEWVSVIYAGDNTYSADSVKGRFTISRDNSNNTLCLQMNSLRAEDTAVYYCAREGGTTGAFDIWGQGTMVTVSS VL: DIQMTQSPSSVSASVGDRVTITCRASQGINSWLAWYQQKPGKAPKLLIYAASSLQSGVPSRFSGSGSGTDFTLTISSLQPEDFATYYCQQGNSFPYTFGQGTKLEIK | no binding (tested: 100 nM) | –
15 | 75110_03I23A (antibody, V domains shown, Tested as antibody purified from AlivaMab Mouse hybridoma supernatant (captured by anti-mouse IgG Fc)) VH: QVQLQESGPGLVKPSETLSLTCTASGGSITSYYWNWIRQPAGKGLEWIGRIYTSGSTNYNPSLKSRVTMSVDTSKNQFSLKLSSVTAADTAVYYCARDPGYSDAFNIWGQGTMVTVSS VL: not shown | no binding (tested: 100 nM) | –
16 | 75110_04G02A (antibody, V domains shown, Tested as antibody purified from AlivaMab Mouse hybridoma supernatant (captured by anti-mouse IgG Fc)) VH: not shown VL: DIVMTQSPDSLAVSLGERATINCKSSQSVLYSSNNKNYLAWYQQKPGQPPKLLFYWASARESGVPDRFSGSGSGTDFTLTISSLQAEDVALYYCQQYFGSFPTFGQGTKLEIK | no binding (tested: 100 nM) | –
17 | 75110_05A11A (antibody, V domains shown, Tested as antibody purified from AlivaMab Mouse hybridoma supernatant (captured by anti-mouse IgG Fc)) VH: EVQLVESGGGLVKPGGSLTLSCAASGFTFSNTWMSWVRQAPGKGLEWVGRIKSKIDGGTTDYAAPVKGRFTISRDDSKNTLYLQMNSLKTEDTAVYYCTTSGTYSSGWGLFDYWGQGTLVTVSS VL: DIQMTQSPSSLSASVGDRVTITCQASQDISNYLNWYQQKPGKAPKLLIYDTSNLEAGVPSRFSGSGSGTHFTLTISSLQPEDIATYYCQQYDNLPFTFGGGTRVEIK | no binding (tested: 100 nM) | –
18 | 75110_05G15A (antibody, V domains shown) VH: QVQLQESGPGLVKPSQTLSLTCTVSGGSISSGGYFWSWIRQHPGKGLEWIGCIYYSGSTYYIPSLKSRVTISVDTSKNQFSLKLRSVTAADTAVYYCARDGYDYWYFDLWGRGTLVTVSS VL: not shown | no binding (tested: 100 nM) | –
